Data: publication PMC10615991

Target: Recombinant angiotensin-converting enzyme-2 (ACE2) (UniProt Q9BYF1)
Assay: LSPR (localized surface plasmon resonance)

Sequence of Recombinant angiotensin-converting enzyme-2 (ACE2) (Q9BYF1 18-805): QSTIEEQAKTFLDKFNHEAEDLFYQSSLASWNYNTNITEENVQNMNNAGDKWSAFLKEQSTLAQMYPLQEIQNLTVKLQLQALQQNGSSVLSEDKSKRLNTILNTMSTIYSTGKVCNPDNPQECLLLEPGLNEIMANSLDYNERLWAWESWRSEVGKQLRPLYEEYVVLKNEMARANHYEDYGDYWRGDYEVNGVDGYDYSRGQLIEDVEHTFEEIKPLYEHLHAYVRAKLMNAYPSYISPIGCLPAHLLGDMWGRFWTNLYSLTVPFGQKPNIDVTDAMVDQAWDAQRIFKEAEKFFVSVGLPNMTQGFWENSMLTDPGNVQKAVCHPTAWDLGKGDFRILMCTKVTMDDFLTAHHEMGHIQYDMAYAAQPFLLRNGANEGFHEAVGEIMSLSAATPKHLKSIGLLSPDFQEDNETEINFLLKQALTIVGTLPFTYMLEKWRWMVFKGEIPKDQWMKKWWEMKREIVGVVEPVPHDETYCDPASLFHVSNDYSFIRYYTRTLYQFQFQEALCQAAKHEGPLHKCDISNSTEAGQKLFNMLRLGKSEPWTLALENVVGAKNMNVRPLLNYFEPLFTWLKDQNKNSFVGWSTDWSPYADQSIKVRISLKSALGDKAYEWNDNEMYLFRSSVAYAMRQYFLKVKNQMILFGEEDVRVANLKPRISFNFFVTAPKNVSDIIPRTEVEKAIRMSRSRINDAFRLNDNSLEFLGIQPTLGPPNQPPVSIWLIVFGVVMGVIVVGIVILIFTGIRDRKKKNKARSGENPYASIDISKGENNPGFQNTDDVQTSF

Which LOD does the source give for “SARS-CoV S1 protein (from UniProt P59594 14-667) (domain or fragment)” here?
Its LOD is 0.01 ng/mL.

What about the fold wavelength shift on Au@R/Li against Au@R, at 100 ng/ml of the same substance?
The fold wavelength shift on Au@R/Li against Au@R, at 100 ng/ml was 1.78 fold.

And the fold wavelength shift on Au@R/Li against Au@R, at 1000 ng/ml?
The fold wavelength shift on Au@R/Li against Au@R, at 1000 ng/ml was 4.51 fold.

And the fold wavelength shift on Au@R/Li against Au@R, at 10,000 ng/ml?
The fold wavelength shift on Au@R/Li against Au@R, at 10,000 ng/ml was 1.95 fold.
